Test results from US20030125257A1 (published 2003).
Square brackets hold non-standard residues; d marks the D form. Ends that are not written are not given here. Sta = CC(C)C[C@H](N)[C@@H](O)CC(=O)O

Target: purified full-length human BACE with six C-terminal His residues, expressed in Sf9 insect cells (human, UniProt P56817 46-501)
Test: radioligand equilibrium binding (Scatchard plot); no inhibitor

Sequence of purified full-length human BACE with six C-terminal His residues, expressed in Sf9 insect cells (P56817 other isoform, or with tags, fused parts or gaps): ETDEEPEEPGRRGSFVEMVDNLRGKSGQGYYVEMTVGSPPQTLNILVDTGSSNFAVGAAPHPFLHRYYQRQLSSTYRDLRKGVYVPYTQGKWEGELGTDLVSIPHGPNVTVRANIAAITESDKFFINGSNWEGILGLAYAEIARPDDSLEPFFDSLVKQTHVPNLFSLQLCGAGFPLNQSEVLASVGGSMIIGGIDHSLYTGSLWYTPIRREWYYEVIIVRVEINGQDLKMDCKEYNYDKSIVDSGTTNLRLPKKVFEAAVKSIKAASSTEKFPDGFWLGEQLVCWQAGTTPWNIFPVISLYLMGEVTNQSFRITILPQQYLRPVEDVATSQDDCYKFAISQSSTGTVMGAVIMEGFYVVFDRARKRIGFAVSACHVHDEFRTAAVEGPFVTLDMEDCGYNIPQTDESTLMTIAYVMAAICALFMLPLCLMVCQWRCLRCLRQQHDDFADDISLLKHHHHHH

Work on EVN[Sta]VAE[Tyr(3H2)]-NH2 [tritiated Compound A (Glu-Val-Asn-Statine-Val-Ala-Glu-Tyr-NH2, iodine of Tyr(I2) exchanged for 3H)] yielded a Kd of 25 nM.
